Among the data in article PMC3081289 (PLoS ONE, 2011) are Kd values, retold here.

The assay deals with T1, human Epidermal Growth Factor Receptor 2 (HER2), extracellular domain (Homo sapiens, UniProt P04626).
T1 construct: HER2 (human Epidermal Growth Factor Receptor 2), extracellular domain (ECD); also called HER2-ECD; HER2 ECD; source: expressed and purified as described [54]
The assay can be described thus: SPR; BIAcore 3000; VEGF_(8–109) or HER2 ECD immobilised on CM5 chips; serial dilutions of Fab in PBS with 0.05% Tween20 injected at 30 µl/min; 30°C; 1:1 Langmuir fit; KD from the ratio of kon and koff. The settings on record: both partners purified.

B1: bH1 Fab (HER2/VEGF dual specific variant of Herceptin) (Fab, V domains shown)
VH: not shown
VL: DIQMTQSPSSLSASVGDRVTITCRASQDIPRSISGYVAWYQQKPGKAPKLLIYWGSYLYSGVPSRFSGSGSGTDFTLTISSLQPEDFATYYCQQHYTTPPTFGQGTKVEIK
notes: Isolated from a phage library that randomised the light chain CDRs of Herceptin [22]
A word on the Kd: it is the constant that tells how readily two partners part at equilibrium. Regarding B1, the Kd worked out at 20 nM.
